± gives the standard deviation of the averaged measurements.
Test: total protein half-life in vivo (active degradation + dilution); higher = more stable protein
[1] = E. coli NCM3722 delta-clpP delta-lon delta-hslV, growth: N-lim chemostat, doubling time 6 h
[2] = E. coli NCM3722 delta-clpP, growth: N-lim chemostat, doubling time 6 h
[3] = E. coli NCM3722 delta-hslV, growth: N-lim chemostat, doubling time 6 h
[4] = E. coli NCM3722 delta-lon, growth: N-lim chemostat, doubling time 6 h
[5] = E. coli NCM3722 delta-smpB, growth: N-lim chemostat, doubling time 6 h
[6] = wild type E. coli NCM3722, growth: C-lim chemostat, doubling time 3 h
[7] = wild type E. coli NCM3722, growth: C-lim chemostat, doubling time 6 h
[8] = wild type E. coli NCM3722, growth: C-lim chemostat, doubling time 12 h
[9] = wild type E. coli NCM3722, growth: N-lim chemostat, doubling time 6 h
[10] = wild type E. coli NCM3722, growth: N-lim chemostat, doubling time 12 h
[11] = wild type E. coli NCM3722, growth: P-lim chemostat, doubling time 6 h
[12] = wild type E. coli NCM3722, growth: P-lim chemostat, doubling time 12 h

Row | Sequence | total protein half-life in vivo [1] | total protein half-life in vivo [2] | total protein half-life in vivo [3] | total protein half-life in vivo [4] | total protein half-life in vivo [5] | total protein half-life in vivo [6] | total protein half-life in vivo [7] | total protein half-life in vivo [8] | total protein half-life in vivo [9] | total protein half-life in vivo [10] | total protein half-life in vivo [11] | total protein half-life in vivo [12]
1 | MSEKLQVVTLLGSLRKGSFNGMVARTLPKIAPASMEVNALPSIADIPLYDADVQQEEGFPATVEALAEQIRQADGVVIVTPEYNYSVPGGLKNAIDWLSRLPDQPLAGKPVLIQTSSMGVIGGARCQYHLRQILVFLDAMVMNKPEFMGGVIQNKVDPQTGEVIDQGTLDHLTGQLTAFGEFIQRVKI [P0AGE6] | 6.73 ± 1.1 h | 5.46 ± 0.56 h | 5.61 ± 0.31 h | 5.83 ± 0.28 h | 5.24 ± 0.12 h | 3.116 ± 0.014 h | 5.74 ± 0.21 h | 11.1 ± 0.21 h | 5.27 ± 0.43 h | 9.39 ± 0.36 h | 5.31 ± 0.077 h | 12.1 ± 0.48 h
2 | MRVVILGSGVVGVASAWYLNQAGHEVTVIDREPGAALETSAANAGQISPGYAAPWAAPGVPLKAIKWMFQRHAPLAVRLDGTQFQLKWMWQMLRNCDTSHYMENKGRMVRLAEYSRDCLKALRAETNIQYEGRQGGTLQLFRTEQQYENATRDIAVLEDAGVPYQLLESSRLAEVEPALAEVAHKLTGGLQLPNDETGDCQLFTQNLARMAEQAGVKFRFNTPVDQLLCDGEQIYGVKCGDEVIKADAYVMAFGSYSTAMLKGIVDIPVYPLKGYSLTIPIAQEDGAPVSTILDETYKIAITRFDNRIRVGGMAEIVGFNTELLQPRRETLEMVVRDLYPRGGHVEQATFWTGLRPMTPDGTPVVGRTRFKNLWLNTGHGTLGWTMACGSGQLLSDLLSGRTPAIPYEDLSVARYSRGFTPSRPGHLHGAHS [P0A6J5] | 2.86 ± 0.088 h | 1.88 ± 0.14 h | 2.16 ± 0.24 h | 2.06 h | 1.95 ± 0.12 h | 1.01 ± 0.16 h | 1.65 ± 0.11 h | 2.68 ± 0.58 h | 2.04 ± 0.17 h | 3.35 ± 0.27 h | 2.27 ± 0.23 h | 4.77 ± 0.97 h
3 | MKRINALTIAGTDPSGGAGIQADLKTFSALGAYGCSVITALVAQNTRGVQSVYRIEPDFVAAQLDSVFSDVRIDTTKIGMLAETDIVEAVAERLQRYQIQNVVLDTVMLAKSGDPLLSPSAVATLRSRLLPQVSLITPNLPEAAALLDAPHARTEQEMLEQGRSLLAMGCGAVLMKGGHLDDEQSPDWLFTREGEQRFTAPRIMTKNTHGTGCTLSAALAALRPRHTNWADTVQEAKSWLSSALAQADTLEVGHGIGPVHHFHAWW | 5.24 ± 0.81 h | 5.47 ± 0.26 h | 4.31 ± 0.15 h | 4.49 ± 0.18 h | 4.23 ± 0.093 h | 3.06 ± 0.055 h | 5.96 ± 0.11 h | 9.68 ± 4.2 h | 4.49 ± 0.61 h | 7.38 ± 0.17 h | 5.89 ± 0.12 h | 9.53 ± 1.9 h
4 | MIAITGATGQLGHYVIESLMKTVPASQIVAIVRNPAKAQALAAQGITVRQADYGDEAALTSALQGVEKLLLISSSEVGQRAPQHRNVINAAKAAGVKFIAYTSLLHADTSPLGLADEHIETEKMLADSGIVYTLLRNGWYSENYLASAPAALEHGVFIGAAGDGKIASATRADYAAAAARVISEAGHEGKVYELAGDSAWTLTQLAAELTKQSGKQVTYQNLSEADFAAALKSVGLPDGLADMLADSDVGASKGGLFDDSKTLSKLIGHPTTTLAESVSHLFNVNN | 5.42 ± 0.13 h | 4.93 ± 0.067 h | 4.99 ± 0.61 h | 5.3 ± 0.25 h | 4.569 ± 0.035 h | 3.2 ± 0.18 h | 5.84 ± 0.31 h | 8.9 ± 2 h | 5.15 ± 0.28 h | 8.33 h | 6.72 ± 0.65 h | 13.1 ± 1.4 h
5 | MNAPFTYSSPTLSVEALKHSIAYKLMFTIGKDPVVANKHEWLNATLFAVRDRLVERWLRSNRAQLSQETRQVYYLSMEFLIGRTLSNAMLSLGIYEDVQGALEAMGLNLEELIDEENDPGLGNGGLGRLAACFLDSLATLGLPGRGYGIRYDYGMFKQNIVNGSQKESPDYWLEYGNPWEFKRHNTRYKVRFGGRIQQEGKKTRWIETEEILGVAYDQIIPGYDTDATNTLRLWSAQASSEINLGKFNQGDYFAAVEDKNHSENVSRVLYPDDSTYSGRELRLRQEYFLVSSTIQDILSRHYQLHKTYDNLADKIAIHLNDTHPVLSIPEMMRLLIDEHQFSWDDAFEVCCQVFSYTNHTLMSEALETWPVDMLGKILPRHLQIIFEINDYFLKTLQEQYPNDTDLLGRASIIDESNGRRVRMAWLAVVVSHKVNGVSELHSNLMVQSLFADFAKIFPGRFTNVTNGVTPRRWLAVANPSLSAVLDEHLGRNWRTDLSLLNELQQHCDFPMVNHAVHQAKLENKKRLAEYIAQQLNVVVNPKALFDVQIKRIHEYKRQLMNVLHVITRYNRIKADPDAKWVPRVNIFGGKAASAYYMAKHIIHLINDVAKVINNDPQIGDKLKVVFIPNYSVSLAQLIIPAADLSEQISLAGTEASGTSNMKFALNGALTIGTLDGANVEMLDHVGADNIFIFGNTAEEVEELRRQGYKPREYYEKDEELHQVLTQIGSGVFSPEDPGRYRDLVDSLINFGDHYQVLADYRSYVDCQDKVDELYELQEEWTAKAMLNIANMGYFSSDRTIKEYADHIWHIDPVRL [P0AC86] | 6.11 ± 0.49 h | 5.45 ± 0.2 h | 5.71 ± 0.2 h | 5.65 ± 0.26 h | 5.54 ± 0.24 h | 3.18 ± 0.28 h | 5.27 ± 0.13 h | 10.1 ± 0.57 h | 5.448 ± 0.0098 h | 10.1 ± 0.65 h | 6.01 ± 0.15 h | 11.9 ± 1 h
6 | MAITGIFFGSDTGNTENIAKMIQKQLGKDVADVHDIAKSSKEDLEAYDILLLGIPTWYYGEAQCDWDDFFPTLEEIDFNGKLVALFGCGDQEDYAEYFCDALGTIRDIIEPRGATIVGHWPTAGYHFEASKGLADDDHFVGLAIDEDRQPELTAERVEKWVKQISEELHLDEILNA | 5.32 ± 1.2 h | 5.07 ± 0.65 h | 4.45 ± 0.27 h | 4.59 ± 0.44 h | 4.64 ± 0.75 h | – | 5.31 ± 0.73 h | 7.02 ± 3 h | 4.71 ± 0.14 h | 8.16 ± 0.92 h | 6.33 ± 0.46 h | –

— the supplement of paper PMC11246515
